The values that follow come from publication doi:10.1101/2020.06.22.20137695.

Assay [1] deals with HCoV-HKU1 spike protein, recombinant soluble ectodomain trimer (HCoV-HKU1) (UniProt Q0ZME7). The assay can be described thus: SEC.
The target of assay [2] is HCoV-OC43 spike protein, recombinant soluble ectodomain trimer (HCoV-OC43 | bacteriophage T4) (UniProt P36334). The assay can be described thus: SEC.

In the case of “HCoV-HKU1 spike protein, recombinant soluble ectodomain trimer (from UniProt Q0ZME7 13-1295) (domain or fragment)”, the stoichiometry N in assay [1] is 3. For the substance “HCoV-OC43 spike protein, recombinant soluble ectodomain trimer (from UniProt P36334 14-1297) (domain or fragment)”, in assay [2], the stoichiometry N came out at 3.
